Results taken from patent US20140287419A1, “Compositions Having Dicamba Decarboxylase Activity and Methods of Use” (priority 2013, published 2014).

B1: 120 (protein)
chain: MAIIDCHGHYTTTPKGVETYRNAQKAAVAKDPSFKYEKGQVVVSDDEIRESIENNQLKMQRERGTDLTIFSPRSTAGGHHIGNEYTSQFWTEHQNDLIRRVCDLFPKNFAPVAQLPQSPGVDPAKSVPEIVRTVEQMGFIGINLNPDPSGGYWKDTSLADRAFYPIYEKMVEYDIPAMIHPRNACNDCFHTTGSHALGADTTGFQQLIMSDVFKDFPSLKIIIPHGGGAVPYHWGRFRGLMQDQGYAPLEESALKNIYFDTCVYHQRGIDLLLDIVPTQNILFASEMIGAVRGIDAETGHNFDDTKRYIDNNTALNAEEKAMIFEGNARRVFSRLKTD
modifications: Dicamba decarboxylase variant clone DC.12.002
B2: 122 (protein)
chain: MAIIDCHGHYTTTPKGVEDYRNAQKAAVAKDPSFKGEKGQVVVSDDEIRESIENNQLKMQRERGTDLTIFSPRSTAGGHHIGNEYTSQFWTEHQNDLIRRVCDLFPKNFAPVAQLPQSPGVDPAKSVPEIVRTVEQMGFIGINLNPDPSGGYWKDTSLADRAFYPIYEKMVEYDIPAMIHPRNACNDCFHTTGSHALGADTTGFQQLIMSDVFKDFPSLKIIIPHGGGAVPYHWGRFRGLMQDQGYAPLEESALKNIYFDTCVYHQRGIDLLLDIVPTQNILFASDMIGAVRGIDPETGHNFDDTKRYIDNNTALNAEEKAMIFEGNARRVFSRLKTD
modifications: Dicamba decarboxylase variant clone DC.12.103
B3: 121 (protein)
chain: MAIIDCHGHYTTTPKGVEDYRNAQKAAVAKDPSFKGEKGQVVVSDDEIRESIENNQLKMQRERGTDLTIFSPRWDAGGHHIGNEYTSQFWTEHQNDLIRRVCDLFPKNFAPVAQLPQSPGVDPAKSVPEIVRTVEQMGFIGINLNPDPSGGYWKDTSLADRAFYPIYEKMVEYDIPAMIHPRLACNACFHTGLSVGLGADTTGFQQLIMSDVFKDFPSLKIIIPHGGGAVPYHWGRFRGLMQDQGYAPLEESALKNIYFDTCVYHQRGIDLLLDIVPTQNILFASEMIGAVRGIDPETGHNFDDTKRYIDNNTALNAEEKAMIFEGNARRVFSRLKTD
modifications: Dicamba decarboxylase variant clone DC.12.014
B4: 111 (protein)
chain: MAQGKVALEEHFAIPETLQDSMGFVPGDYWKELMHRLLDIQDTRLKLMDAHGIETMILSLNAPAVQAIPDRRKAIEIARRANDVLAEECAKRPDRFLAFAALPLQDPDAATEELQRCVNDLGFVGALVNGFSQEGDGQTPLYYDLPQYRPFWGEVEKLDVPFYLHPRNPLPQDSRIYDGHPWLLGPTWAFAQETAVHALRLMASGLFDEHPRLNIILGHMGEGLPYMMWRIDHRMAWIKLPPRYPAKRRFMDYFNENFHITTSGNFRTQTLIDAILEIGADRILFSTDWPFENIDHASDWFNATSIAEADRVKIGRTNARRLFKLDGA
modifications: Dicamba decarboxylase variant clone DC.4.112
B5: 113 (protein)
chain: MAQGKVALEEHFAIPETLQDSAGFVPGDYLKELFHRLLDIQDTRLKLMDAHGIETMILSLNAPAVQAIPDRRKAIEIARRANDVLAEECAKRPDRFLAFAALPLQDPDAATEELQRCVNDLGFVGALVNGFSQEGDGQTPLYYDLPQYRPFWGEVEKLDVPFYLHPRNPLPQDSRIYDGHPWLLGPTWAFAQETAVHALRLMASGLFDEHPRLNIILGHMGEGLPYMMWRIDHRVAWVKLPPRYPAKRRFMDYFNENFHITTSGNFRTQTLIDAILEIGADRILFSTDWPFENIDHASDWFNATSIAEADRVKIGRTNARRLFKLDGA
modifications: Dicamba decarboxylase variant clone DC.4.114
B6: 114 (protein)
chain: MAQGKVALEEHFAIPETLQDSAGAVPGDYWKELQHRLLDIQDTRLKLMDAHGIETMILSLNAPAVQAIPDRRKAIEIARRANDVLAEECAKRPDRFLAFAALPLQDPDAATEELQRCVNDLGFVGALVNGFSQEGDGQTPLYYDLPQYRPFWGEVEKLDVPFYLHPRNPLPQDSRIYDGHPWLLGPTWAFAQETAVHALRLMASGLFDEHPRLNIILGHMGEGLPYMMWRIDHRVAWVKLPPRYPAKRRFMDYFNENFHITTSGNFRTQTLIDAILEIGADRILFSTDWPFENIDHASDWFNATSIAEADRVKIGRTNARRLFKLDGA
modifications: Dicamba decarboxylase variant clone DC.4.116
B7: 112 (protein)
chain: MAQGKVALEEHFAIPETLQDSAGFVPGDYWKELVHRLLDIQDTRLKLMDAHGIETMILSLNAPAVQAIPDRRKAIEIARRANDVLAEECAKRPDRFLAFAALPLQDPDAATEELQRCVNDLGFVGALVNGFSQEGDGQTPLYYDLPQYRPFWGEVEKLDVPFYLHPRNPLPQDSRIYDGHPWLLGPTWAFAQETAVHALRLMASGLFDEHPRLNIILGHMGEGLPYMMWRIDHRVAWVKLPPRYPAKRRFMDYFNENFHITTSGNFRTQTLIDAILEIGADRILFSTDWPFENIDHASDWFNATSIAEADRVKIGRTNARRLFKLDGA
modifications: Dicamba decarboxylase variant clone DC.4.113
B8: 110 (protein)
chain: MAQGKVALEEHFAIPETLQDSMGFVPGDYWKELMHRLLDIQDTRLKLMDAHGIETMILSLNAPAVQAIPDRRKAIEIARRANDVLAEECAKRPDRFLAFAALPLQDPDAATEELQRCVNDLGFVGALVNGFSQEGDGQTPLYYDLPQYRPFWGEVEKLDVPFYLHPRNPLPQDSRIYDGHPWLLGPTWAFAQETAVHALRLMASGLFDEHPRLNIILGHMGEGLPYMMWRIDHRMAWVKLPPRYPAKRRFMDYFNENFHITTSGNFRTQTLIDAILEIGADRILFSTDWPFENIDHASDWFNATSIAEADRVKIGRTNARRLFKLDGA
modifications: Dicamba decarboxylase variant clone DC.4.111
B9: 115 (protein)
chain: MAQGKVALEEHFAIPDTLTTYTTSGDYEKELKHRLLDIQDTRLKLMDAHGIETMILSLNAPGVQAIPDRRKAIEIARRANDVLAEECAKRPDRFLAFAALPLQDPDAATEELQRCVNDLGFVGALVNGFSQEGDGQTPLYYDLPQYRPFWGEVEKLDVPFYLHPRNPLPQDSRIYDGHPWLLGPTWAFAQETAVHALRLMASGLFDEHPRLNIILGHMGEGLPYMMWRIDHRNAWVKTPPRYPAKRRFMDYFNENFHITTSGNFRTQTLIDAILEIGADRILFSTDWPFENIDHASDWFNATSIAEADRVKIGRTNARRLFKLDGA
modifications: Dicamba decarboxylase variant clone DC.4.161
B10: 116 (protein)
chain: MAQGKVALEEHFAIPETLQDAAGFVPGDYWKELQHRLLDIQDRRVRLMDEHGIETMILSLNAPAVQAIADSTRANETARRANDFLAEQVAKQPTRFRGFAALPMQDPELAARELERCVKELGFVGALVNGFSQDNRSAVPLYYDMAQYWPFWETVQALDVPFYLHPRNPLPSDARIYDGHAWLLGPTWAFGQETAVHALRLMGSGLFDKYPALKIILGHMGEGLPYSMWRIDHRNAWIKTTPKYPAKRKIVDYFNENFYLTTSGNFRTQTLIDAILEIGADRILFSTDWPFENIDHAADWFENTSISEADRKKIGWGNAQNLFKLNR
modifications: Dicamba decarboxylase variant clone DC.30.007

Legend:
[1] = Dicamba decarboxylation activity of computationally designed protein variants; conditions: for Percent Activity Improvement Over Parent (%): parent SEQ ID NO:1 or SEQ ID NO:41 listed as 100
[2] = 14C assay with IPTG-induced recombinant E. coli cells (14CO2 capture from [14C]-carboxyl-labeled dicamba); conditions: dicamba decarboxylation activity of the protein of the given SEQ ID NO
[3] = Table 4, variants designed to introduce activity
[4] = Table 5, designed variants with improved activity

Row | Molecule | Dicamba Decarboxylation activity [1, 3] | Enzymatic Detection level [2] | Dicamba Decarboxylation activity [1, 4] | Percent Activity Improvement Over Parent (%) [1]
1 | B1 | Yes | High | – | –
2 | B2 | Yes | High | – | –
3 | B3 | Yes | High | – | –
4 | B4 | – | High | Yes | 237%
5 | B5 | – | High | Yes | 224%
6 | B6 | – | High | Yes | 221%
7 | B7 | – | High | Yes | 219%
8 | B8 | – | High | Yes | 277%
9 | B9 | – | High | Yes | 202%
10 | B10 | – | High | Yes | 220%
